Source: patent US20070212363A1 (US Dept. of Health and Human Services, published 2007)

Assays:
Experiment in all cases: cell-based or functional assay
[1] = target: HIV-1 AD8 envelope glycoprotein (Env) (HIV-1 strain AD8)
[2] = target: T1, HIV-1 JR-FL envelope glycoprotein (Env) (HIV-1 strain JR-FL)
[3] = target: HIV-1 IIIB envelope glycoprotein (Env) (HIV-1 strain IIIB)
[4] = target: HIV-1 AD8 envelope glycoprotein (Env) (HIV-1 strain AD8); remark: listed apart in the source
[5] = target: T1, HIV-1 JR-FL envelope glycoprotein (Env); remark: listed apart in the source
[6] = target: HIV-1 IIIB envelope glycoprotein (Env) (HIV-1 strain IIIB); remark: listed apart in the source

B1: scFv m9 (scFv)
scFv: VLTQSPGTLSLSAGERATLSCRASQSVSSGSLAWYQQKPGQAPRLLIYGASTRATGIPDRFSGSGSGTDFTLTIGRLEPEDLAVYYCQQYGTSPYTFGQGTKLEIKRTGGGGSGGGGSGGGGSVQLLEQSGAEVKKPGSSVQVSCKAFGGTFSMYGFNWVRQAPGHGLEWMGGIIPIFGTTNYAQKFRGRVTFTADQATSTAYMELTNLRSDDTAVYYCARDFGPDWEGGDSYDGSGRGFFDFWGQGTLVNVSS
- percentage of maximal infection, U87.CD4.CCR5.CXCR4 cells, 100 µg/mL antibody [1]: 6.1%
- percentage of maximal infection, U87.CD4.CCR5.CXCR4 cells, 100 µg/mL antibody [2]: 20%
- percentage of maximal infection, U87.CD4.CCR5.CXCR4 cells, 100 µg/mL antibody [3]: 12%
- Neutralizing activity (percentage) at 100 µg/mL [4]: 100%
- Neutralizing activity (percentage) at 100 µg/mL [5]: 90%
- Neutralizing activity (percentage) at 100 µg/mL [6]: 100%
